From PMC9770967, “Native holdup (nHU) to measure binding affinities from cell extracts” (Science Advances, 2022)

Key:
Format in all cases: binding, human
[1] = biological target: full-length SNX27; assay: nHU-MS, recombinant full-length SNX27 bait, total Jurkat extracts; details: apparent, Fig. 4D, n = 6
Procedure: (§1) The empty His6-AviTag-MBP-TEV vector was used to produce biotinylated MBP for control experiments. Proteins were coexpressed with BirA biotin ligase (PET21a-BirA, Addgene, no. 20857) in Escherichia coli BL21(DE3) cells. At isopropyl-β-D-thiogalactopyranoside (IPTG) induction (1 mM IPTG at 18°C overnight), 50 μM biotin was added to the media. Harvested cells were lysed in a buffer containing 50 mM tris (pH 7.5), 150 to 300 mM NaCl, 50 μM biotin, 2 mM β-mercaptoethanol, cOmplete EDTA-free protease inhibitor cocktail (Roche, Basel, Switzerland), 1% Triton X-100, and trace amount of deoxyribonuclease, ribonuclease, and lysozyme. Lysates were frozen at −20°C before further purification steps. Lysates were sonicated and centrifuged for clarification. Expressed proteins were captured on in-house prepacked Ni-IDA (Protino Ni-IDA Resin, Macherey-Nagel, Duren, Germany) columns and were washed with at least 10 column volumes of cold wash buffer [50 mM tris (pH 7.5), 150 mM NaCl, and 2 mM β-mercaptoethanol] before elution with 250 mM imidazole. The Ni elution was collected directly on a preequilibrated amylose column (amylose high flow resin, New England Biolabs, Ipswich, MA). Amylose column was washed with 5 column volumes of cold wash buffer before fractionated elution in a buffer containing 25 mM Hepes (pH 7.5), 150 mM NaCl, 1 mM TCEP, 10% glycerol, 5 mM maltose, and cOmplete EDTA-free protease inhibitor cocktail. The concentration of proteins was determined by their ultraviolet absorption at 280 nm before aliquots were snap-frozen in liquid nitrogen and stored at −80°C.
(§2) For saturating streptavidin resin with biotinylated peptides or biotin, 50 μl of streptavidin resin was mixed with biotin or peptide at 40 to 60 μM concentration in 6 to 6.5 resin volume for 60 min. To saturate streptavidin resin with biotinylated proteins, 50 μl of streptavidin resin (Streptavidin Sepharose High Performance, Cytiva) was mixed with biotinylated MBP or MBP-PDZ at 40 to 50 μM concentration in 20× resin volume for 60 min. After saturation, resins were washed a single time [10 resin volume, holdup buffer: 50 mM tris (pH 7.5), 300 mM NaCl, and 1 mM TCEP, 0.22-μm filtered] and were depleted with biotin (10 resin volume, 10 min, holdup buffer supplemented with 100 μM biotin). Last, resins were washed two times (10 resin volume, holdup buffer).
(§3) For single-point nHU experiments carried out at ~10 μM bait concentration, 50 μl of saturated streptavidin resin was mixed with 200 μl of cell lysate (2 mg/ml). Titration experiments were carried out by mixing control and bait-saturated resin and keeping the total resin volume constant; e.g., ~5 μM bait concentration can be achieved by mixing 25 μl of bait-saturated streptavidin resin with 25 μl of control resin and 200 μl of cell lysate (2 mg/ml). Control and bait-saturated resins were prepared in larger amounts, and a serial dilution was prepared with these presaturated resins to achieve different resin ratios.
Unless specified elswhere, the nHU mixture was incubated at 4°C for 2 hours. After the incubation ended, the resin was separated from the supernatant by a brief centrifugation (15 s, 2000 g). Then, half of the supernatant was removed by pipetting without any delay to avoid any resin contamination; e.g., 100 μl of supernatant is collected if 200 μl of cell lysate was used as analyte. Alternatively, the supernatant can be centrifuged an additional time to clarify it further, removing any possible resin contamination. […]

[2] = test system: SNX27_PDZ; assay: AP-MS control pull-down on leftover resin, SNX27_PDZ bait, total Jurkat extracts; details: AP-MS control pull-down, total Jurkat extract
Procedure: Leftover beads from nHU-MS experiments were washed three times immediately after the separation of the supernatant [10 resin volume in buffer containing 50 mM tris (pH 8.5), 150 mM NaCl, 1% Triton X-100, 10× cOmplete EDTA-free protease inhibitor cocktail, 2 mM EDTA, and 1 mM TCEP]. Then, the beads were washed two times [10 resin volume buffer containing 50 mM tris (pH 8.5), 150 mM NaCl, and 1 mM TCEP]. Last, captured protein was eluted from the resin in two steps, and the eluted fractions were pooled. For each elution, the beads were incubated for 30 min with three resin volume buffer containing 20 mM tris (pH 8.5), 100 mM NaCl, 500 μM TCEP, and 8 M urea. Between each step, the beads were separated by mild centrifugation, and the supernatant was removed by gentle pipetting.
The nHU samples were precipitated with trichloroacetic acid (TCA) 20% overnight at 4°C and centrifuged at 14,000 rpm for 10 min at 4°C. The protein pellets were washed twice with 1 ml of cold acetone and air-dried. The protein extracts were solubilized in 8 M urea, reduced with 5 mM TCEP for 30 min, and alkylated with 10 mM iodoacetamide for 30 min in the dark. Double digestion was performed at 37°C with 500 ng of endoproteinase Lys-C (Wako, Richmond, USA) for 4 hours, followed by fourfold dilution and an overnight digestion with 500 ng of trypsin (Promega, Charbonnieres les Bains, France). Peptide mixtures were then desalted on a C18 spin-column and dried on a speed vacuum.
Samples were analyzed using an Ultimate 3000 nano-RSLC coupled in line via a nano-electrospray ionization source, with an LTQ-Orbitrap ELITE mass spectrometer (Thermo Fisher Scientific, San Jose, CA) or with the Orbitrap Exploris 480 mass spectrometer (Thermo Fisher Scientific, Bremen, Germany) equipped with a high field asymmetric ion mobility spectrometry (FAIMS) module. Peptide mixtures were injected in 0.1% trifluoroacetic acid on a C18 Acclaim PepMap100 trap column [75 μm inner diameter (ID) × 2 cm, 3 μm, 100 Å, Thermo Fisher Scientific] for 3 min at 5 μl/min with 2% acetonitrile (ACN) and 0.1% formic acid (FA) in H2O and then separated on a C18 Acclaim PepMap100 nano-column (75 μm ID × 50 cm, 2.6 μm, 150 Å, Thermo Fisher Scientific) at 300 nl/min and 40°C with a 90-min linear gradient from 5 to 30% buffer B (A: 0.1% FA in H2O/B: 80% ACN, 0.1% FA in H2O) and regeneration at 5% B. Spray voltage was set to 2.1 kV and heated capillary temperature was set to 280°C.
For the Orbitrap Elite, the mass spectrometer was operated in positive ionization mode in data-dependent mode with survey scans from mass/charge ratio (m/z) 350 to 1500 acquired in the Orbitrap at a resolution of 120,000 at m/z 400. The 20 most intense peaks from survey scans were selected for further fragmentation in the linear ion trap with an isolation window of 2.0 Da and were fragmented by collision-induced dissociation (CID) with a normalized collision energy of 35% (TOP 20 CID method). Unassigned and single-charged states were excluded from fragmentation. The ion target value for the survey scans (in the Orbitrap) and the MS2 mode (in the linear ion trap) were set to 1E6 and 5E3, respectively, and the maximum injection time was set to 100 ms for both scan modes. Dynamic exclusion was set to 20 s after one repeat count with mass width at ±10 parts per million (ppm).
Proteins were identified by database search using SequestHT (Thermo Fisher Scientific) with Proteome Discoverer 2.4 software (PD2.4, Thermo Fisher Scientific) on the human FASTA database downloaded from UniProt (reviewed, release 2021_06_03, 20380 entries, https://uniprot.org/, complemented with sequences of likely contaminants, such as MBP, streptavidin, or trypsin). Precursor and fragment mass tolerances were set at 7 ppm and 0.6 Da, respectively, and up to two missed cleavages were allowed. […]

[3] = test system: SNX27_PDZ; assay: nHU-MS, SNX27_PDZ bait, total Jurkat extracts, series 1; details: nHU-MS, total Jurkat extract
Procedure: as §1, §2, §3
Unless specified elswhere, the nHU mixture was incubated at 4°C for 2 hours. After the incubation ended, the resin was separated from the supernatant by a brief centrifugation (15 s, 2000 g). Then, half of the supernatant was removed by pipetting without any delay to avoid any resin contamination; e.g., 100 μl of supernatant is collected if 200 μl of cell lysate was used as analyte. Alternatively, the supernatant can be centrifuged an additional time to clarify it further, removing any possible resin contamination. In principle, the separation of the supernatant should be as fast as possible since any delay can perturb the equilibrium. […] Alternatively, the resin can be separated from the supernatant using filter plates (e.g., various products of Millipore, Burlington, MA) or spin columns (e.g., Pierce spin cups—cellulose acetate filter from Thermo Fisher Scientific, Waltham, MA) to achieve faster separation. […]

B1: SNX2: component of the SNX-BAR complex (protein, UniProt O60749 1-519, looked up)
Sorting nexin-2: MAAEREPPPLGDGKPTDFEDLEDGEDLFTSTVSTLESSPSSPEPASLPAEDISANSNGPKPTEVVLDDDREDLFAEATEEVSLDSPEREPILSSEPSPAVTPVTPTTLIAPRIESKSMSAPVIFDRSREEIEEEANGDIFDIEIGVSDPEKVGDGMNAYMAYRVTTKTSLSMFSKSEFSVKRRFSDFLGLHSKLASKYLHVGYIVPPAPEKSIVGMTKVKVGKEDSSSTEFVEKRRAALERYLQRTVKHPTLLQDPDLRQFLESSELPRAVNTQALSGAGILRMVNKAADAVNKMTIKMNESDAWFEEKQQQFENLDQQLRKLHVSVEALVCHRKELSANTAAFAKSAAMLGNSEDHTALSRALSQLAEVEEKIDQLHQEQAFADFYMFSELLSDYIRLIAAVKGVFDHRMKCWQKWEDAQITLLKKREAEAKMMVANKPDKIQQAKNEIREWEAKVQQGERDFEQISKTIRKEVGRFEKERVKDFKTVIIKYLESLVQTQQQLIKYWEAFLPEAKAIA
[1]
  pKapp: 5.04

B2: SNX5: component of the SNX-BAR complex (protein, UniProt Q9Y5X3 2-404, looked up)
Sorting nexin-5: AAVPELLQQQEEDRSKLRSVSVDLNVDPSLQIDIPDALSERDKVKFTVHTKTTLPTFQSPEFSVTRQHEDFVWLHDTLIETTDYAGLIIPPAPTKPDFDGPREKMQKLGEGEGSMTKEEFAKMKQELEAEYLAVFKKTVSSHEVFLQRLSSHPVLSKDRNFHVFLEYDQDLSVRRKNTKEMFGGFFKSVVKSADEVLFTGVKEVDDFFEQEKNFLINYYNRIKDSCVKADKMTRSHKNVADDYIHTAACLHSLALEEPTVIKKYLLKVAELFEKLRKVEGRVSSDEDLKLTELLRYYMLNIEAAKDLLYRRTKALIDYENSNKALDKARLKSKDVKLAEAHQQECCQKFEQLSESAKEELINFKRKRVAAFRKNLIEMSELEIKHARNNVSLLQSCIDLFKNN
[1]
  pKapp: 5.23

B3: SNX6: component of the SNX-BAR complex (protein, UniProt Q9UNH7 1-406, looked up)
Sorting nexin-6: MMEGLDDGPDFLSEEDRGLKAINVDLQSDAALQVDISDALSERDKVKFTVHTKSSLPNFKQNEFSVVRQHEEFIWLHDSFVENEDYAGYIIPPAPPRPDFDASREKLQKLGEGEGSMTKEEFTKMKQELEAEYLAIFKKTVAMHEVFLCRVAAHPILRRDLNFHVFLEYNQDLSVRGKNKKEKLEDFFKNMVKSADGVIVSGVKDVDDFFEHERTFLLEYHNRVKDASAKSDRMTRSHKSAADDYNRIGSSLYALGTQDSTDICKFFLKVSELFDKTRKIEARVSADEDLKLSDLLKYYLRESQAAKDLLYRRSRSLVDYENANKALDKARAKNKDVLQAETSQQLCCQKFEKISESAKQELIDFKTRRVAAFRKNLVELAELELKHAKGNLQLLQNCLAVLNGDT
[1]
  pKapp: 5.47

B4: ZC3HAV1 (protein, UniProt Q7Z2W4 2-902, looked up)
Zinc finger CCCH-type …: ADPEVCCFITKILCAHGGRMALDALLQEIALSEPQLCEVLQVAGPDRFVVLETGGEAGITRSVVATTRARVCRRKYCQRPCDNLHLCKLNLLGRCNYSQSERNLCKYSHEVLSEENFKVLKNHELSGLNKEELAVLLLQSDPFFMPEICKSYKGEGRQQICNQQPPCSRLHICDHFTRGNCRFPNCLRSHNLMDRKVLAIMREHGLNPDVVQNIQDICNSKHMQKNPPGPRAPSSHRRNMAYRARSKSRDRFFQGSQEFLASASASAERSCTPSPDQISHRASLEDAPVDDLTRKFTYLGSQDRARPPSGSSKATDLGGTSQAGTSQRFLENGSQEDLLHGNPGSTYLASNSTSAPNWKSLTSWTNDQGARRKTVFSPTLPAARSSLGSLQTPEAVTTRKGTGLLSSDYRIINGKSGTQDIQPGPLFNNNADGVATDITSTRSLNYKSTSSGHREISSPRIQDAGPASRDVQATGRIADDADPRVALVNDSLSDVTSTTSSRVDDHDSEEICLDHLCKGCPLNGSCSKVHFHLPYRWQMLIGKTWTDFEHMETIEKGYCNPGIHLCSVGSYTINFRVMSCDSFPIRRLSTPSSVTKPANSVFTTKWIWYWKNESGTWIQYGEEKDKRKNSNVDSSYLESLYQSCPRGVVPFQAGSRNYELSFQGMIQTNIASKTQKDVIRRPTFVPQWYVQQMKRGPDHQPAKTSSVSLTATFRPQEDFCFLSSKKYKLSEIHHLHPEYVRVSEHFKASMKNFKIEKIKKIENSELLDKFTWKKSQMKEEGKLLFYATSRAYVESICSNNFDSFLHETHENKYGKGIYFAKDAIYSHKNCPYDAKNVVMFVAQVLVGKFTEGNITYTSPPPQFDSCVDTRSNPSVFVIFQKDQVYPQYVIEYTEDKACVIS
[2]; SNX27/MBP
  Ratio_AP: 128.984
[2]; SNX27 vs MBP
  FC_AP: 7.011
[2]; BINDS / DOES NOT BIND
  BINDER_AP: BINDS
[3]; SNX27/MBP, sheet "SNX27&Jurkat"
  Ratio_HU: 0.6368
[3]; SNX27 bait vs MBP control, sheet "SNX27&Jurkat"
  BI_HU: 0.3632
[3]; SNX27 bait, not filtered for significance
  pKapp_HU_not_filtered: 4.758
[3]; SNX27 vs MBP control, sheet "SNX27&Jurkat"
  FC_HU: -0.651
